# Patent CN115057931A
# B1: BMK7 (antibody, from another filing, V domains shown)
# VH: QVQLVESGGGVVQPGRSLRLSCVASGFTFSSYGMHWVRQAPGKGLEWVAIIWYDGSNKYYADSVKGRFTISRDNSKNTQYLQMNSLRAEDTAVYYCASVATSGDFDYYGMDVWGQGTTVTVSS
# VL: EIVLTQSPATLSLSPGERTTLSCRASQRISTYLAWYQQKPGQAPRLLIYDASKRATGIPARFSGSGSGTGFTLTISSLEPEDFAVYYCQQRSNWPLTFGGGTKVEIK
# Target: human LAG-3, full length, on transfected cells (human) (UniProt P18627)
# Assay: cell-based or functional assay
# UniProt P18627, sequence (P18627 23-525 limits assumed): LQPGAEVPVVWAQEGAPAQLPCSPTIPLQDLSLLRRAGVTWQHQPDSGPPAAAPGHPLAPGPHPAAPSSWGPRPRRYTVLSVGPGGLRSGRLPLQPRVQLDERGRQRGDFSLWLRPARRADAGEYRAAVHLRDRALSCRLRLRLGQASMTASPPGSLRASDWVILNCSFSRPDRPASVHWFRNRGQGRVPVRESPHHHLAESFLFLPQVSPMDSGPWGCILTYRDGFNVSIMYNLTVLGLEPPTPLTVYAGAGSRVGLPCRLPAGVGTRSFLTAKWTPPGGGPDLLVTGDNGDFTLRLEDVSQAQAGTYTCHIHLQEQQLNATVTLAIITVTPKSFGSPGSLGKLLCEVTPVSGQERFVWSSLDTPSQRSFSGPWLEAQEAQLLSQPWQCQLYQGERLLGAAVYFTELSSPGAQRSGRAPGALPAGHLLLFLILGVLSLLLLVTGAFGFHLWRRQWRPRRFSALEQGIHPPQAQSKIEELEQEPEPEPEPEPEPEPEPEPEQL
binder,measurement,value
B1,"EC50(nM), IL-2 luciferase reporter in Jurkat cells expressing human LAG-3 with Raji cells and SEE",2.65 nM
